Each block holds one molecule with its values, some of them ahead of it.
Key:
[1] = target: NTSR1 linear L2-biotin protein; experiment: Binding affinity of the humanized antibodies by ELISA; set-up: species or system human; conditions: for Kd: binding ELISA, non-linear regression; for binding signal for NTSR1 in binding ELISA: FIG. 4
Method: ELISA plates were coated with 1-2 μg/100 μL per well of NTSR1 linear L2-biotin protein. Wells were rinsed for 3 times with PBS and blocked with 300 μL of 5% MPBS per well for 2 hr at 37° C. After washing with PBS, wells were incubated with serial diluted NTSR1 antibodies in 5% MPBS for 1.5 hours at 37° C. The plates were washed and goat polyclonal anti-human IgG-HRP antibody (1:10,000) (JACKSON IMMUNORESEARCH®) was added into each well. The OD at 650 nm and at 450 nm was read. Readings were obtained by subtracting OD650 from OD450 and the binding affinities of antibodies were calculated by non-linear regression with Prism software (GRAPHPAD®).

[2] = system: NTSR1 expressing cells, FaDu; experiment: Cell-binding assay by FACS; set-up: species or system human
Method: Anti-NTSR1 antibodies were used to detect cells that express NTSR1 on the cell surfaces, for example using FACS. NTSR1 expressing cells, FaDu, were harvested and re-suspended in 5% PBS/FBS buffer. The cells (1×10^5) were incubated with anti-NTSR1 antibody (1-10 μg/ml) or negative control, at 4° C. for 1 hr, and then stained with goat anti-human IgG FITC conjugate ( 1/1000) at 4° C. for 1 hr. For each assay, two additional controls were prepared; one without primary antibody and the other one with absence of any antibody. All treated samples were analyzed with FACSVERSE™ (BECTON DICKINSON®) and the results were processed by FACSUITE™ software (BECTON DICKINSON®).

B3: 7C3 HdHd: humanized anti-NTSR1 antibody, 7C3 HdVH (SEQ ID NO: 11) and 7C3 HdVL (SEQ ID NO: 12) (antibody, V domains shown)
VH: EVQLVESGGGLVQPGGSLRLSCAASGYTFTSSWIHWVRQAPGKGLEWVAQIRPNSGNTYYNEKFKVRFTISRDDSKNTLYLQMNSLRAEDTAVYYCARYYYGFDYWGQGTLVTVSS
VL: DIQMTQSPSSLSASVGDRVTITCRSSQSIVHSNGNTYLEWYQQKPGKAPKLLIYKVSNRFSGVPSRFSGSGSGTDFTLTISSLQPEDFATYYCFQGSHLPWTFGQGTKVEIK
binding signal for NTSR1 in binding ELISA [1]: much lower binding signals

B4: 7C3 HuHd: humanized anti-NTSR1 antibody, 7C3 HuVH paired with 7C3 HdVL (antibody, V domains shown)
VH: QVQLVQSGAEVKKPGASVKVSCKASGYTFTSSWIHWVRQAPGQGLEWMGQIRPNSGNTYYNEKFKVRVTMTRDTSTSTVYMELSSLRSEDTAVYYCARYYYGFDYWGQGTLVTVSS
VL: B3 VL
binding signal for NTSR1 in binding ELISA [1]: good binding signal | binding to FaDu cells ([2]; concentration of 1 μg/mL): do not bind well | binding to FaDu cells ([2]; concentration of 10 μg/mL): do not bind significantly

B5: 7C3 HdHu: humanized anti-NTSR1 antibody, presumably 7C3 HdVH paired with 7C3 HuVL (antibody, V domains shown)
VH: B3 VH
VL: DIVMTQTPLSLSVTPGQPASISCRSSQSIVHSNGNTYLEWYLQKPGQSPQLLIYKVSNRFSGVPDRFSGSGSGTDFTLKISRVEAEDVGVYYCFQGSHLPWTFGQGTKVEIK
binding signal for NTSR1 in binding ELISA [1]: much lower binding signals

Further lines, with some results ahead:

Kd [1]: 0.676 nM
B1: 7C3 MM: mouse-human chimera anti-NTSR1 antibody, m7C3 VH (SEQ ID NO: 7) and m7C3 VL (SEQ ID NO: 8) (antibody, V domains shown)
VH: QVQLQQPGSVLVRPGDSVMLSCKASGYTFTSSWIHWAKQRPGQGPEWIGQIRPNSGNTYYNEKFKVKATLTVDTSSSTAYVDLSSLTSEDSAVYYCARYYYGFDYWGQGTTVTVSS
VL: DVLMTQTPLSLPVSLGDQASISCRSSQSIVHSNGNTYLEWYLQKPGQSPKLLIYKVSNRFSGVPDRFSGSGSGTDFTLKISRVEAEDLGVYYCFQGSHLPWTFGGGTKLEIK
binding to FaDu cells ([2]; concentration of 1 μg/mL): do not bind well | binding to FaDu cells ([2]; concentration of 10 μg/mL): do not bind significantly

binding signal for NTSR1 in binding ELISA [1]: good binding signal | Kd [1]: 0.294 nM
B2: 7C3 HuHu: humanized anti-NTSR1 antibody, 7C3 HuVH (SEQ ID NO: 13) and 7C3 HuVL (SEQ ID NO: 14) (antibody, V domains shown)
VH: B4 VH
VL: B5 VL
binding to FaDu cells ([2]; concentration of 1 μg/mL): do not bind well | binding to FaDu cells ([2]; concentration of 10 μg/mL): do not bind significantly
